Laboratory results from paper PMC10786891, “Massively parallel profiling of RNA-targeting CRISPR-Cas13d”.
Where a chain is given by its changes, count along the chain named. In names and notes the source's numbering stands.

B1: target 3 U2G,G4U (mixed)
RNA 1: CACCCGUGCAAAAUUGCAGGGGUCUAAAACGACCUGAAUAUUUCAGAUCAAA
RNA 2: GGGAAUGGAUCCACAUCUACGAAUUCGUUUUUGAUCUGAAAUAUUCAUGGCUGCAGAUCGGAAGAGCACACGU
B2: target 3 insG 3' of 5 (mixed)
RNA 1: B1 RNA 1
RNA 2: GGGAAUGGAUCCACAUCUACGAAUUCGUUUUUGAUCUGAAAUAUUCAGGGUCUGCAGAUCGGAAGAGCACACGU
B3: target 3 U7C,U22C (mixed)
RNA 1: B1 RNA 1
RNA 2: B1 RNA 2 with U30C, U45C, U48G, G50U
B4: target 3 del2,del6 (mixed)
RNA 1: B1 RNA 1
RNA 2: GGGAAUGGAUCCACAUCUACGAAUUCGUUUUUGAUCUGAAAUAUUAGGCUGCAGAUCGGAAGAGCACACGU
B5: target 3 insC 3' of 13,insC 3' of 3 (mixed)
RNA 1: B1 RNA 1
RNA 2: GGGAAUGGAUCCACAUCUACGAAUUCGUUUUUGAUCUGACAAUAUUCAGGCUCUGCAGAUCGGAAGAGCACACGU
B6: target 3 U7A,U8G (mixed)
RNA 1: B1 RNA 1
RNA 2: B1 RNA 2 with U44G, U45A, U48G, G50U
B7: target 3 insG 3' of 7,insU 3' of 3 (mixed)
RNA 1: B1 RNA 1
RNA 2: B5 RNA 2 with C40A, A42U, U43A, A44U, U46G, C51U
B8: target 3 U2A,C16U (mixed)
RNA 1: B1 RNA 1
RNA 2: B1 RNA 2 with C36U, U48G, G50A
B9: target 1 insA 3' of 5,insC 3' of 1 (mixed)
RNA 1: CACCCGUGCAAAAAUGCAGGGGUCUAAAACUGAGCGGAUAACCUCUCUAUGG
RNA 2: GGGAAUGGAUCCACAUCUACGAAUUCGUACCAUAGAGAGGUUAUCCGACUCACCCGAGAUCGGAAGAGCACACGU
B10: target 3 A11C,A18G (mixed)
RNA 1: B1 RNA 1
RNA 2: B1 RNA 2 with A34G, A41C, U48G, G50U
B11: target 3 insA 3' of 22,insC 3' of 20 (mixed)
RNA 1: B1 RNA 1
RNA 2: GGGAAUGGAUCCACAUCUACGAAUUCGUUUAUUCGAUCUGAAAUAUUCAGGUCUGCAGAUCGGAAGAGCACACGU
B12: target 3 insG 3' of 7,insU 3' of 4 (mixed)
RNA 1: B1 RNA 1
RNA 2: B5 RNA 2 with C40A, A42U, U43A, A44U, U46G, G50U, C51G
B13: target 3 C6U,A12U (mixed)
RNA 1: B1 RNA 1
RNA 2: B1 RNA 2 with A40U, C46U, U48G, G50U
B14: target 3 insC 3' of 5,insC 3' of 5 (mixed)
RNA 1: B1 RNA 1
RNA 2: B5 RNA 2 with C40A, A42U, U43A, A44U, U46C, C47A, A48C, G49C, C51G
B15: target 3 insU 3' of 22,insG 3' of 2 (mixed)
RNA 1: B1 RNA 1
RNA 2: GGGAAUGGAUCCACAUCUACGAAUUCGUUUUUUGAUCUGAAAUAUUCAGGUGCUGCAGAUCGGAAGAGCACACGU
B16: target 3 insC 3' of 9,insA 3' of 6 (mixed)
RNA 1: B1 RNA 1
RNA 2: B5 RNA 2 with C40A, A42U, U43A, A44C, G49A, C51G
B17: target 3 A5C,C6A (mixed)
RNA 1: B1 RNA 1
RNA 2: B1 RNA 2 with C46A, A47C, U48G, G50U
B18: target 3 insC 3' of 4,insA 3' of 2 (mixed)
RNA 1: B1 RNA 1
RNA 2: GGGAAUGGAUCCACAUCUACGAAUUCGUUUUUGAUCUGAAAUAUUCAGCGUACUGCAGAUCGGAAGAGCACACGU
B19: target 1 G5U,U10C (mixed)
RNA 1: B9 RNA 1
RNA 2: GGGAAUGGAUCCACAUCUACGAAUUCGUACCAUAGAGAGGUCAUCCUCUCACCGAGAUCGGAAGAGCACACGU
B20: target 3 del1,del6 (mixed)
RNA 1: B1 RNA 1
RNA 2: B4 RNA 2 with C49U
B21: target 3 insU 3' of 9,insA 3' of 8 (mixed)
RNA 1: B1 RNA 1
RNA 2: B18 RNA 2 with C46A, A47U, G48C, C49A, U51G, A52U
B22: target 3 insU 3' of 11,insG 3' of 6 (mixed)
RNA 1: B1 RNA 1
RNA 2: B5 RNA 2 with C40A, A42U, A48G, G49A, C51G
B23: target 3 U8C,U22A (mixed)
RNA 1: B1 RNA 1
RNA 2: B1 RNA 2 with U30A, U44C, U48G, G50U
B24: target 3 U2A,A11G (mixed)
RNA 1: B1 RNA 1
RNA 2: B1 RNA 2 with A41G, U48G, G50A
B25: target 3 C1A,U8G (mixed)
RNA 1: B1 RNA 1
RNA 2: B1 RNA 2 with U44G, U48G, G50U, C51A
B26: target 3 insA 3' of 22,insU 3' of 19 (mixed)
RNA 1: B1 RNA 1
RNA 2: B11 RNA 2 with C34G, G35U
B27: target 3 insA 3' of 14,insA 3' of 2 (mixed)
RNA 1: B1 RNA 1
RNA 2: B5 RNA 2 with C40A, C51U, U52A

Biological target: T1, EsCas13d, nuclease-dead (Eubacterium siraeum, UniProt B0MS50, R295A;H300A;R849A;H854A)
T1 sequence: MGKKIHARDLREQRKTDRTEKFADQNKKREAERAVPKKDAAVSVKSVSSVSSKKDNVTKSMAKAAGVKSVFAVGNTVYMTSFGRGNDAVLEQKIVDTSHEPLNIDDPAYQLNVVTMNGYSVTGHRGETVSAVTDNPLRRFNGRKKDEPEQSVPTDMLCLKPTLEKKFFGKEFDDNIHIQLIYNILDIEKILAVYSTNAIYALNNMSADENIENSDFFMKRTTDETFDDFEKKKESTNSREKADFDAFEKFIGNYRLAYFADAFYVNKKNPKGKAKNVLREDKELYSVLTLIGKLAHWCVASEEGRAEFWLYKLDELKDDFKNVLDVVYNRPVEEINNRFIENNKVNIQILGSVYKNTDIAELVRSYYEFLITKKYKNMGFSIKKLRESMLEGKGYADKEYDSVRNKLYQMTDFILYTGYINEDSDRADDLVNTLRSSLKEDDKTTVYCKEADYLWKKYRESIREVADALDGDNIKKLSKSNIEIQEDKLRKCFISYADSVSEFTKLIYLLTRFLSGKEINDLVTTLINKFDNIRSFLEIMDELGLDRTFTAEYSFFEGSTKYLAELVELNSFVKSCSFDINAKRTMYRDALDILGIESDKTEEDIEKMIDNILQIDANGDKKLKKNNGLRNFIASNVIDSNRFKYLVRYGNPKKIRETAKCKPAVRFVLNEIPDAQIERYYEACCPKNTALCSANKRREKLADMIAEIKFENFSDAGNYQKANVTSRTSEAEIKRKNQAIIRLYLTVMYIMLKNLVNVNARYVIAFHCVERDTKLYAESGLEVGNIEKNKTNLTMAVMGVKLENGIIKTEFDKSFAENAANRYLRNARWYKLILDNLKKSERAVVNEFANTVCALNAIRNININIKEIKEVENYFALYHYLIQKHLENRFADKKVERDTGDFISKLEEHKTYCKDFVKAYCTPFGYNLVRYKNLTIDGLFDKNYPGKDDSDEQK
Test: crRNA (strand 1, pre-loaded); Mg2+; 40 mM Tris-HCl pH 7.5, 150 mM NaCl, 6 mM MgCl2, 1 mM DTT, 0.1% Tween-20, 0.2 mg/ml BSA; 25 C; 10 min per concentration, then washed
Settings: tags: His6-TwinStrep-SUMO cleaved; N-terminal SNAP kept (SNAP-Surface 488); label: 3' end held by stalled T7 RNA polymerase

Binder	Kd [nM]
B1	2.11 ± 0.25
B2	19.9 ± 1.95
B3	70.5 ± 13.5
B4	18 ± 1.85
B5	81 ± 22
B6	84 ± 24
B7	47.5 ± 10.5
B8	45.2 ± 8.25
B9	8.4 ± 1.6
B10	73 ± 22.5
B11	86 ± 34.5
B12	32 ± 6.1
B13	88 ± 21.5
B14	11.1 ± 0.7
B15	32.2 ± 3.15
B16	76.5 ± 16
B17	49 ± 5
B18	23.9 ± 3.2
B19	95 ± 19
B20	~56
B21	71.5 ± 21.5
B22	87 ± 14.5
B23	42.3 ± 4.95
B24	73.5 ± 24
B25	74 ± 16
B26	65 ± 15
B27	64 ± 10
